What all share (assay type): biochemical, Emericella nidulans KY125
Substrate in data set [1]: N[C@@H](CCCCNCC1(O)OC[C@@H](O)[C@@H](O)[C@@H]1O)C(=O)O
Kind of data set: Km values of the fructosyl peptide oxidase FPOX-9 towards each type of substrate. Particulars: other: Tris buffer (pH 7.5), 37° C. As for the experimental part: (§1) Substrate specificity of the novel FPOX-9 obtained in Example 2 to glycated peptides and/or glycated amino acids were measured using the following Reagent 1 to Reagent 3.
(§2) Herein, the FPOX-9 solution used was the one prepared in Example 3.
(§3) As substrates, glycated peptide α-FVH as well as glycated amino acids ε-FK and α-FV were used.
(§4) α-FVH solutions and α-FV solutions were prepared using Tris buffer to obtain each of the following concentrations in Reagent 3: 0, 0.05, 0.1, 0.5, 1, 2, 5, and 10 mmol/L. ε-FK solutions were prepared using Tris buffer to obtain each of the following concentrations in Reagent 3: 0, 1, 2, 5, 10, 20, 40, 50, 80, and 100 mmol/L.
(§5) 170 μL of Reagent 2 was added to 10 μL of Reagent 1, and after the reaction at 37° C. for five minutes, 20 μL of Reagent 3 was added, and the reaction was further continued at 37° C. for five minutes, a total of ten minutes. The absorbance at 546 nm (main wavelength)/800 nm (sub-wavelength) for 0 mmol/L at 5.4 minutes after starting the reaction was defined as A0′ (Abs), and the absorbance at 546 nm (main wavelength)/800 nm (sub-wavelength) for each substrate concentration at 5.4 minutes after starting the reaction was defined as A0^x (Abs), and ΔA0 was calculated according to Equation (I). (Mathematical Expression 1) ΔA0=A0^x−A0′(Abs) (I)
(§6) The absorbance at 546 nm (main wavelength)/800 nm (sub-wavelength) for 0 mmol/L at 6.6 minutes after starting the reaction was defined as As′ (Abs), and the absorbance at 546 nm (main wavelength)/800 nm (sub-wavelength) for each substrate concentration at 6.6 minutes after starting the reaction was defined as As^x (Abs), and ΔAs was calculated according to Equation (II). (Mathematical Expression 2) ΔAs=As^x−As′(Abs) (II)
(§7) The enzyme activity (U/mL) for each substrate concentration was calculated by substituting the obtained ΔA0 and ΔAs total amount of reaction solution (0.2 mL), molar extinction coefficient of TOOS (39,200), reaction time (1.2 minutes), and the light path length of the reaction cuvette (0.5 cm) into Equation (III). […]

Substrate in data set [2]: CC(C)[C@H](NCC1(O)OC[C@@H](O)[C@@H](O)[C@@H]1O)C(=O)O
The description is as above. The conditions noted are these: other: Tris buffer (pH 7.5), 37° C. As for the experimental part:
as §1, §2, §3, §4, §5, §6, §7

Substrate in data set [3]: CC(C)[C@H](NCC1(O)OC[C@@H](O)[C@@H](O)[C@@H]1O)C(=O)N[C@@H](Cc1c[nH]cn1)C(=O)O
The data set is described as above. Particulars: other: Tris buffer (pH 7.5), 37° C. As to the method:
as §1, §2, §3, §4, §5, §6, §7

Substrate in data set [4]: N[C@@H](CCCCNCC1(O)OC[C@@H](O)[C@@H](O)[C@@H]1O)C(=O)O
The data set is described as follows: Km values of the fructosyl peptide oxidase FPOX-15 towards each type of substrate. Particulars: 37° C. As to the method: (§8) The substrate specificity of FPOX-15 obtained in Example 2 to glycated peptides and/or glycated amino acids was measured using the following Reagent 1 to Reagent 3.
(§9) Herein, for the FPOX-15 solution, a solution produced by four-fold dilution of the solution obtained in Example 3 was used.
as §3
(§10) α-FVH solutions and α-FV solutions were prepared using distilled water to obtain the following concentrations in Reagent 3: 0, 2, 2.5, 3, and 3.66 mmol/L. ε-FK solution was prepared using distilled water to obtain the following concentrations in Reagent 3: 0, 20, 30, 40, and 50 mmol/L.
as §5, with “150” for “170”, “5” for “10”, “wavelength)/700” for “wavelength)/800”
(§11) The absorbance at 546 nm (main wavelength)/700 nm (sub-wavelength) for 0 mmol/L at 6.6 minutes after starting the reaction was defined as As′ (Abs), and the absorbance at 546 nm (main wavelength)/700 nm (sub-wavelength) for each substrate concentration at 6.6 minutes after starting the reaction was defined as As^x (Abs), and ΔAs was calculated according to Equation (II). (Mathematical Expression 2) ΔAs=As^x−As′(Abs) (II)
(§12) The enzyme activity (U/mL) for each substrate concentration was calculated by substituting the obtained ΔA0 and ΔAs, total amount of reaction solution (0.2 mL), molar extinction coefficient of EMSE (33,800), reaction time (1.2 minutes), and the light path length of the reaction cuvette (0.5 cm) into Equation (III). (Mathematical Expression 3) Enzyme activity(U/mL)={(ΔAs−ΔA0)×total amount of reaction solution(mL)}/{molar extinction coefficient ε/1000×amount of enzyme solution(mL)×0.5×reaction time(min)×light path length(cm)} (III)
(§13) For each of the substrates α-FVH, ε-FK, and α-FV, a plot was produced with substrate concentration (mmol/L) on the horizontal axis and the corresponding enzyme activity (U/mL) on the vertical axis, and the substrate concentration corresponding to ½ of the maximum enzyme activity was calculated as the Km value (Michaelis constant).

Substrate in data set [5]: CC(C)[C@H](NCC1(O)OC[C@@H](O)[C@@H](O)[C@@H]1O)C(=O)O
The data set is described as above. The conditions noted are these: 37° C. As to the method:
as §8, §9, §3, §10
as §5, with “150” for “170”, “5” for “10”, “wavelength)/700” for “wavelength)/800”
as §11, §12, §13

Substrate in data set [6]: CC(C)[C@H](NCC1(O)OC[C@@H](O)[C@@H](O)[C@@H]1O)C(=O)N[C@@H](Cc1c[nH]cn1)C(=O)O
The description is as above. Particulars: 37° C. As for the experimental part:
as §8, §9, §3, §10
as §5, with “150” for “170”, “5” for “10”, “wavelength)/700” for “wavelength)/800”
as §11, §12, §13

Setting [7] is: other: pH 6.0, sodium dihydrogen phosphate, pH 6.0.
[8] abbreviates: other: pH 7.0, sodium dihydrogen phosphate, pH 7.0.
Setting [9] is: other: pH 8.0, sodium dihydrogen phosphate, pH 8.0.

B1: Emericella nidulans KY125 fructosyl peptide oxidase variant FPOX-9 (Ser71Tyr, Ile94Met, Glu104Lys, Lys109Arg, Phe269Ile), SEQ ID NO: 1 (Aspergillus nidulans; … (protein)
chain: MAPRANTKIIVVGGGGTMGSSTALHLLRAGYTPSNITVLDTYPIPSAQSAGYDLNKIMSIRLRNKPDLQLYLEALDMWKNDPLFKPFFHNVGQMDVSSTEEGIKGLRMRYQSLLDAGIGLEKTNFLLESEDEILAKAPHFTREQIKGWKGLFCGDGGWLAAAKAINAIGQFLKEQGVKFGFGGAGTFKKPLFADADEKTCIGVETVDGTKYYADKVVLAAGAWSSTLVDLEEQCVSKAWVFAHIQLTPAEAAAYKNTPVIYDGDYGFFIEPNENGIIKVCDEFPGFTHFKMHQPYGSPVPKPISVPRSHAKHPTDTYPHASEVTIKKAINRFLPRFNDKELFNRAMCWCTDTADANLLVCEHPRWKGFYLATGDSGHSFKLLPNIGKHVVELLEGRLESVFKDAWRWRPGSGDALKSRRAAPAKDLADMPGWRNEAKM
Take B1: the values for the Km in data set [1], in data set [2] and in data set [3] were 4000 µM, 600 µM and 500 µM, respectively.

B2: Emericella nidulans KY125 fructosyl peptide oxidase variant FPOX-15 (FPOX-9 with Met58Phe, Ser59Gly, Gly105Lys, Gly183Glu, Asn272Asp, Pro302Leu), SEQ ID NO: 3 … (protein)
chain: MAPRANTKIIVVGGGGTMGSSTALHLLRAGYTPSNITVLDTYPIPSAQSAGYDLNKIFGIRLRNKPDLQLYLEALDMWKNDPLFKPFFHNVGQMDVSSTEEGIKKLRMRYQSLLDAGIGLEKTNFLLESEDEILAKAPHFTREQIKGWKGLFCGDGGWLAAAKAINAIGQFLKEQGVKFGFGEAGTFKKPLFADADEKTCIGVETVDGTKYYADKVVLAAGAWSSTLVDLEEQCVSKAWVFAHIQLTPAEAAAYKNTPVIYDGDYGFFIEPDENGIIKVCDEFPGFTHFKMHQPYGSPVPKLISVPRSHAKHPTDTYPHASEVTIKKAINRFLPRFNDKELFNRAMCWCTDTADANLLVCEHPRWKGFYLATGDSGHSFKLLPNIGKHVVELLEGRLESVFKDAWRWRPGSGDALKSRRAAPAKDLADMPGWRNEAKM
With B2, the Michaelis constant (Km) amounted to 23200 µM in data set [4] (setting [7]); 19200 µM in data set [4] (setting [8]); 9600 µM in data set [4] (setting [9]); 200 µM in data set [5] (setting [7]); 300 µM in data set [5] (setting [8]); 300 µM in data set [5] (setting [9]). Also, the Km worked out at 400 µM in data set [6] (setting [7]), 500 µM in data set [6] (setting [8]) and 800 µM in data set [6] (setting [9]).

For the origin of these results see patent publication US8790905B2, “Fructosyl peptide oxidase” (Kyowa Medex Co., Ltd, priority 2008, dated 2014).
